Four substances from paper PMC3988563 can be followed below.

As a reminder, the koff is the first-order rate constant of dissociation. A high value points to a short-lived complex.

Test [1] concerns the target Ribosome termination complex (70S ribosomes, fMet-STOP mRNA and fMet-tRNA^fMet) (E. coli). Kind of test: other fluorescence titration; 1 nM fluorescein-labeled A220C RF1 titrated with ribosome complexes (0-52 nM) in 1X 219-HEPES buffer; excitation 491 nm, emission 515 nm; quadratic fit.
For test [2] the target is unchanged. Kind of test: stopped-flow fluorescence; Fl-RF1 preincubated with ribosome complex, chased with excess unlabeled RF1, no RF3; Buffer 219 Tris pH 7.6, 26 C; double exponential fit, faster phase.
Test [3] has the same target. Kind of test: stopped-flow fluorescence; as a12, with RF3 preincubated with 1 mM GTP in the chase mixture.
The target is the same in test [4]. Kind of test: stopped-flow fluorescence; with RF3 preincubated with 1 mM GDP in the chase mixture.
Test [5] deals with Ribosome termination complex formed with wild-type RF1 (E. coli) (UniProt P0A7I0). Kind of test: quick spin gel-filtration assay (Sephadex G-100) with SYPRO Ruby staining; RF3 preincubated with 2 mM GDPNP, mixed with release complexes (10 nM to 2 uM, threefold excess RF1), 10 min 37 C, Buffer 219 HEPES pH 7.6; quadratic fit; KD with wild-type RF1 complexes is called apparent (K_D,app).
Chain of Ribosome termination complex formed with wild-type RF1 (E. coli) (P0A7I0 whole entry, looked up, one chain of several): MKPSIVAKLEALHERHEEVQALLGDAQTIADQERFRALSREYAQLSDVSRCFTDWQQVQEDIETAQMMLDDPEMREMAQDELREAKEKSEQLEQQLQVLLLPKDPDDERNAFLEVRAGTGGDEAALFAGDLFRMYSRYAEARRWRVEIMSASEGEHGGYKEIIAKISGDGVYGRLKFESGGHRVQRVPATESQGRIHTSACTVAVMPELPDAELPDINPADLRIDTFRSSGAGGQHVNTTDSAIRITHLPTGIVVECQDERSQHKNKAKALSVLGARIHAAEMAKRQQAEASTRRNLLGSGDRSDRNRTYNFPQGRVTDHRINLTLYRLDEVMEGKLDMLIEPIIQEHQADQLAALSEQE

Test [6] has as its target Ribosome termination complex formed with GAQ-RF1 (E. coli) (UniProt P0A7I0). Described as above.
Test [7] has as its target Ribosome termination complex formed with wild-type RF1 (E. coli) (UniProt P0A7I0). In words: quick spin gel-filtration assay (Sephadex G-100) with SYPRO Ruby staining; as a8, RF3 preincubated with 2 mM GDP.
The target in test [8] is Ribosome termination complex formed with GAQ-RF1 (E. coli) (UniProt P0A7I0). The test is described as above.
Chain of Ribosome termination complex formed with GAQ-RF1 (E. coli) (P0A7I0 whole entry, looked up, one chain of several): as above
For test [9], the target named is Ribosome termination complex formed with wild-type RF1 (E. coli) (UniProt P0A7I0). In words: quick spin gel-filtration assay (Sephadex G-100) with SYPRO Ruby staining; as a8, no nucleotide added to RF3 (copurified with GDP 1:1; 'apo' assay, no free GDP or GTP).

Chain of His-tagged RF3 (class 2 release factor) (P0A7I4 whole entry): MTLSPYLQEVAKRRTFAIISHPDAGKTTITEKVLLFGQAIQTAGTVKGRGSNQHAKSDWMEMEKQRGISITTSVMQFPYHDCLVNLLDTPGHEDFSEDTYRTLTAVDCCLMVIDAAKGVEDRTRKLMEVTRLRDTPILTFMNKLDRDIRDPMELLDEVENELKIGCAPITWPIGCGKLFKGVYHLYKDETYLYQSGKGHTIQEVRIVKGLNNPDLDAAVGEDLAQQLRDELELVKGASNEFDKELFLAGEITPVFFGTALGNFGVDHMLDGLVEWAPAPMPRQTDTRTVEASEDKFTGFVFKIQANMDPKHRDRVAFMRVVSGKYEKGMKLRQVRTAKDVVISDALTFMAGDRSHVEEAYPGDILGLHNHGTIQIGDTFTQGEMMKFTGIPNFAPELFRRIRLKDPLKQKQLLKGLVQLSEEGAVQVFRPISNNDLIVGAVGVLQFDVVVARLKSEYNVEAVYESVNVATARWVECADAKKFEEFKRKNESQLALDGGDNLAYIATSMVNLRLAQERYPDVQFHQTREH

“Fluorescein-labeled A220C RF1 (from UniProt P0A7I0 1-360) (natural protein)”: the Kd in [1] was 2.5 nM.

Consider “Fluorescein-labeled GAQ-RF1 (single-cysteine L82C or A220C) (from UniProt P0A7I0 1-360) (natural protein)”, for which the koff in [2] worked out at 0.09 s⁻¹. Besides, the koff in the presence of RF3:GTP in test [3] turned out to be 0.14 s⁻¹.

For “Fluorescein-labeled single-cysteine RF1 (either L82C or A220C) (from UniProt P0A7I0 1-360) (natural protein)”, the koff in [2] stood at 0.005 s⁻¹. Further, the koff in the presence of RF3:GTP in test [3] was determined as 2.9 s⁻¹. Moreover, the koff in the presence of RF3:GDP in [4] was found to be 0.3 s⁻¹.

As for “His-tagged RF3 (class 2 release factor) (from UniProt P0A7I4 1-529) (natural protein)”, the Kd in [5] stood at 50 nM; in test [6] it was 10 nM; in test [7] it was 430 nM; in test [8], 1000 nM; in test [9], 36 nM.
